Test results taken from PMC9020740.

Key:
[1] = target: Canine parvovirus nonstructural protein 2 (NS2), made in infection (canine parvovirus (CPV) type 2); assay: proximity ligation; PLA (Duolink In Situ Orange Mouse/Rabbit) in wt CPV-infected NLFK cells, fixed 24 h after infection; anti-NS2 antibody paired with an antibody against the host protein; nuclear PLA foci counted from 3D confocal data, n = 15
[2] = target: NS2-EGFP (canine parvovirus nonstructural protein 2 fused to EGFP) (canine parvovirus (CPV) type 2); assay: proximity ligation; PLA (Duolink In Situ Orange Mouse/Rabbit) in noninfected HeLa cells transfected with NS2-EGFP, fixed 20 h after transfection; anti-GFP paired with an antibody against the host protein; nuclear PLA foci counted from 3D confocal data, n = 15

Substance | PLA foci/nucleus (PLA foci/nucleus) [1] | PLA foci/nucleus (PLA foci/nucleus) [2]
MDC1 of NLFK (feline kidney) cells (natural protein) | 22 | –
core histone macro-H2A.1 (from UniProt O75367 1-369) (natural protein) | – | 135
SSRP1 of NLFK (feline kidney) cells (natural protein) | 3.7 | –
macro-H2A.1 of NLFK (feline kidney) cells (natural protein) | 40 | –
structure specific recognition protein SSRP1 (FACT complex subunit) (from UniProt Q08945 1-709) (natural protein) | – | 7.5
nucleosome-remodeling helicase matrix-associated actin-dependent regulator of chromatin A5 (from UniProt O60264 1-1052) (natural protein) | – | 55
SMARCA5 of NLFK (feline kidney) cells (natural protein) | 6.5 | –
